Common to all, as to assay type: cell-based, human
Assay [1] concerns X13 induced pluripotent stem cells (iPSCs) on microcarriers. Nature of the assay: screening of Wnt pathway activators: mesoderm induction (T-bra, KDR+PDGFRα−) by flow cytometry. To be noted: at 72 hours, compared to other Wnt pathway modulators. The protocol:
(A) is a column graph showing two different concentrations of seven Wnt pathway activators (BIO, SB-216763, CHIR98014, Inhibitor VIII, Kenpaullone, DRF053 dihydrochloride and Wnt3a). which were selected from literature reviews and screened with CHIR99021 as a control for the disclosed hematopoietic differentiation protocol. The viability of the X13 induced pluripotent stem cells (iPSCs) on microcarriers were tabulated accordingly 24 hours post treatment of the various Wnt pathway modulators. […] (B) is a column graph showing the percentage of mesogerm induction.
Human induced pluripotent stem cell-microcarrier (hiPSC-MC) aggregates (1×10^6 cells/ml, or 1e6 cells/nil) were transferred to mesoderm induction medium (cytokines all from Stemcell Technologies) plus Stemline II Hematopoietic Stem Cell Expansion medium (SL2) in either 6-well ultra-low attachment plates (5 ml) under continuous agitation at 75 rpm or 125 ml spinner flasks (50 ml) under continuous agitation at 36 rpm. Daily medium changes as indicated: Day 0: SL2+30 ng/ml BMP4+50 ng/ml VEGF-165+40 ng/ml Activin A+12-15 μM CHIR-99021; Day 1: SL2+30 ng/ml BMP4+50 ng/ml VEGF-165+40 ng/ml Activin A; Day 2: SL2+20 ng/ml BMP4+30 ng/ml VEGF165+5 ng/ml Activin A+10 ng/ml bFGF+20 ng/ml SCF+0.4 ng/ml β-estradiol. Samples were collected on day 1 and day 3 for flow cytometry analysis of T-brachyury (T-Bra) and KDR/PDGFRα cells, respectively.
(In general: A flow cytometer gives signals particle by particle.)

The test system of assay [2] is D5 O-neg hiPSC line. Briefly: CHIR dose: hematopoietic/erythroid differentiation of agitated hPSC-MC aggregates. To be noted: optimal dose of CHIR-99021, day 4.
Assay [3] deals with BR7 O-neg hiPSC line. The description is as above. To be noted: optimal dose of CHIR-99021, day 4.
Assay [4] concerns hES-3-MC aggregates. Nature of the assay: BMP4-based differentiation of hES-3-MC aggregates from static or agitated hPSC expansion. To be noted: BMP4-based protocol; for erythroid cells: starting from 2×10^5 hematopoietic precursors, repeated attempts; for T-bra: Day 2; for KDR: Day 4; for total hematopoietic precursors per well: after 2 weeks of differentiation; for total erythroblast per well: day 28. An excerpt: To test the hypothesis that agitation condition may be a major factor for variable differentiation, hES-3 that was initially expanded under either static (static human pluripotent stem cell (hPSC) expansion) or agitation (agitated human pluripotent stem cell expansion) condition for 7 days were differentiated under static condition using a BMP4-based differentiation protocol. […] (FIG. 10). […] Like-wise, subsequent generation of erythroblast was also severely impaired in cultures derived from agitated as compared to static hPSC expansion group (total erythroblast per well: 4.11±2.4×10^4 vs 26.2±4.7×10^6, respectively, p=0.005; total CD235a population: 0.51±0.1% vs 51.8±2.0%, p<0.0001) (FIG. 1E).
Mesoderm induction of hPSC-MC aggregates using BMP4 based protocol has previously been described. One million HPSC-MC aggregates were cultured in Stemline II hematopoietic stem cell expansion medium (Sigma-Aldrich, USA) containing 50 ng/ml of BMP4 and 50 ng/ml of VEGF165 under static condition. 48 hours later, half the medium was removed and replaced with Stemline II medium containing 50 ng/ml of BMP4, 50 ng/ml of VEGF165 and 20 ng/ml of bFGF (all cytokines from STEMCELL Technologies). HPSC-MC aggregates were cultured for a further 48 hours before being used for hematopoietic precursors differentiation.
One million HPSC-MC aggregates were cultured in Stemline II hematopoietic stem cell expansion medium (Sigma-Aldrich, USA) containing 50 ng/ml of BMP4 and 50 ng/ml of VEGF165. 48 hours later, half the medium was removed and replaced with Stemline II medium containing 50 ng/ml of BMP4, 50 ng/ml of VEGF165 and 20 ng/ml of bFGF (all cytokines from STEMCELL. Technologies). HPSC-MC aggregates were cultured for a further 48 hours before being used for hematopoietic precursor expansion.
HPSC-MC aggregates were dissociated into single cells by treatment with TrypLE. Express (ThermoFisher Scientific) for 5 minutes at 37° C., passed through 40 μm cell strainer (Greiner Bio-one), centrifuged at 1300 rpm for 3 minutes to pellet cells, and rinsed once with phosphate buffered saline (PBS) before re-suspension in Stemline II medium. Two hundred thousand cells in 100 μl of Stemline II medium were transferred to a 6-well ultra-low attachment plate and cultured with Blast growth medium (BGM) for 2 weeks in static conditions as detailed herein.
Hematopoietic precursors were mixed with equal volume of Stemline II medium containing 50 ng/ml of SCF (STEMCELL. Technologies) and 3 U/ml EPO (Peprotech, USA), for an additional 7 days. Subsequently, cells were diluted 10-fold with PBS and pelleted by centrifugation at 3000 rpm for 10 minutes. Erythroblast cells were seeded at a concentration of 2.5×10^5 cells/ml in 3 ml of Stemline II media containing 1× Serum Replacement 3 (Sigma-Aldrich), 0.3% v/v Ex-CYTE growth enhancement media supplement (Merck, USA), 100 ng/ml SCF, 3 U/ml EPO, 1 μM hydrocortisone (Sigma-Aldrich), 200 μg/ml holo-transferrin (MP Biomedicals) and 1× penicillin-streptomycin (ThermoFisher Scientific) in 6-well ultra-low attachment plates under static condition. Cells were re-suspended in fresh media every 4 days and reseeded at 2.5×10^5cells/m=l when cell concentrations exceeded 2×10^6cells/ml. Cumulative fold-expansion was calculated by multiplying fold-expansion achieved between passaging of cells over the course of experiment(s).
For flow cytometric analysis of mesoderm and hematopoietic surface markers, cells were incubated for 15 minutes at room temperature with 1:50 diluted direct-conjugated antibodies. The following human antibodies were used: T-brachyury-FITC (R&D Systems), KDR-PE (Miltenyi Biotec), CD31-PE, CD43-FITC, CD 45-PE, CD71-APC, CD235a-FITC (all from BD Biosciences, USA). The following antibodies were used as isotype-controls: mouse IgG1-FITC and PE (Miltenyi Biotec, Germany), mouse IgG2bk-FITC and mouse IgG2ak-APC (BD Biosciences). […]

This is an account of results in patent publication US12104173B2, “Method for differentiation of human pluripotent stem cell lines in suspension culture” (AGENCY FOR SCIENCE, TECHNOLOGY AND RESEARCH, priority 2018, dated 2024).

As to `Cc1c[nH]c(-c2cnc(NCCNc3ccc(C#N)cn3)nc2-c2ccc(Cl)cc2Cl)n1` [CHIR-99021, 6-[[2-[[4-(2,4-Dichlorophenyl)-5-(5-methyl-1H-imidazol-2-yl)-2-pyrimidinyl]amino]ethyl]amino]-3-pyridinecarbonitrile], in assay [1], the “KDR+PDGFRα− population” value is listed as “significantly highest”. Moreover, the “Mesoderm induction % KDR+ PDGFRα−” value was 35.8% in assay [2] and 18.6% in assay [3].

B1: BMP4: bone morphogenic protein; BMP4-based protocol uses 50 ng/ml BMP4 (protein, UniProt P12644 293-408, looked up)
Bone morphogenetic protein 4: SPKHHSQRARKKNKNCRRHSLYVDFSDVGWNDWIVAPPGYQAFYCHGDCPFPLADHLNSTNHAIVQTLVNSVNSSIPKACCVPTELSAISMLYLDEYDKVVLKNYQEMVVEGCGCR
As to B1, in assay [4] (MC-aggregates expanded in agitation condition), the erythroid cells is recorded as 0.004-4.2×10^7 erythroid cells. The erythroid cells in assay [4] (MC-aggregates expanded in static condition) is 0.25-7.3×10^7 erythroid cells. In assay [4] (agitated hPSC expansion), the “total CD235a population” value was determined as 0.51±0.1%, the T-bra is on record as 0.50±0.02%, the KDR came out at 1.1±0.12% and the “total hematopoietic precursors per well” value was 1.39×10^5±2.18×10^4 per well. The “total erythroblast per well” value in assay [4] (agitated hPSC expansion) is given as 4.11±2.4×10^4 per well. In addition, in assay [4] (static hPSC expansion), the “total CD235a population” value is given as 51.8±2.0%, the T-bra turned out to be 32.6±1.2%, the KDR is given as 27.9±3.3% and the “total hematopoietic precursors per well” value is listed as 5.77×10^6±6.30×10^5 per well. Moreover, the “total erythroblast per well” value in assay [4] (static hPSC expansion) was 26.2±4.7×10^6 per well.
